Molecular target: T1, recombinant human PSMA (extracellular domain) (human, UniProt Q04609 44-750)
T1 construct: extracellular domain; Bought (R&D Systems); Amine-coupled to a CM5 chip; also called prostate specific membrane antigen
Assay: SPR (BIAcore 2000), PSMA on CM5 chip, 1:1 Langmuir fit

T1 sequence (Q04609 44-750): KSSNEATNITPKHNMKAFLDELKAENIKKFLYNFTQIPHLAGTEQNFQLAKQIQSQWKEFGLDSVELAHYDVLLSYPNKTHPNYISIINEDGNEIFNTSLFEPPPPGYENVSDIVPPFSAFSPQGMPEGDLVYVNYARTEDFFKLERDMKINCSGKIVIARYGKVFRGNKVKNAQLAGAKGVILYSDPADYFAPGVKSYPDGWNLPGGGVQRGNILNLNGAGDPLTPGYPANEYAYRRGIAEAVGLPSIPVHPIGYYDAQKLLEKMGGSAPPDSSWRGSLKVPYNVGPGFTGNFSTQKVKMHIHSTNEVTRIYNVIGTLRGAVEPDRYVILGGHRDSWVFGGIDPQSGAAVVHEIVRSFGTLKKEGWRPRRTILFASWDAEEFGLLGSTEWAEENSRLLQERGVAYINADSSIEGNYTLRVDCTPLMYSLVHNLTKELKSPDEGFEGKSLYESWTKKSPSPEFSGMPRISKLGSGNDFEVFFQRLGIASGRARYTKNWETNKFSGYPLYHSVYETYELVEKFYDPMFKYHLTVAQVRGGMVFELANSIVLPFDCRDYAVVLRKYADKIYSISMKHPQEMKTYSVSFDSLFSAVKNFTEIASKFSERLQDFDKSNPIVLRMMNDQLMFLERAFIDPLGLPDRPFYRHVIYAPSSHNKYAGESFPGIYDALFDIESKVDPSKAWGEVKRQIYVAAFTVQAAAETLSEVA

B1: heptameric PSMA-binding peptide targeting ligand (designed binder)
chain: MWQPDTAHHWATLGPQPQPKPQPKPEPEPQPQGGMPPRPLDVLNRSLKSPVIVRLKGGREFRGTLDGYDIHMNLVLLDAEEIQNGEVVRKVGSVVIRGDTVVFVSPAPGGEHHHHHH
notes: Self-assembled homoheptamer; also called PSMA-Heptamer; P^PSMA heptamer
B1 was tested, and the Kd was 20 nM and the koff was 1.09e-06 s⁻¹.

Source: US20140086835A1 (UNIVERSITY OF NORTH CAROLINA AT CHAPEL HILL, published 2014)
